Legend:
Assay type in all cases: cell-based, Homo sapiens
[1] = system: GADD34 mRNA in HCT116 cells; test: qPCR of GADD34 transcript; settings: norm to GAPDH
DR5 = test: GFP immunoprecipitation: DR5 (FADD, caspase 8) recovered with GFP-tagged protein, Western blot; settings: for fraction of DR5 IP'ed: GFP IP
Protocol: (§1) 15 cm dishes were seeded with 4 million HCT116 cells and allowed to recover for 18 hr prior to transfection. Samples were then transfected for 24 hr with the GFP-tagged ER trafficked protein, cytosolic GFP, or empty vector. To harvest apoptotic and living cells for each sample, all media and washes were collected. Cells were scraped in 2 ml of cold PBS and combined with the media and washes. Samples were centrifuged to pellet cells, washed with 1 ml cold PBS, and flash frozen in liquid N2 prior to lysis.
(§2) The cell pellets were resuspended in 750 μl of 30 mM HEPES pH 7.2, 150 mM NaCl, 1% Triton X-100 with 1x Roche protease inhibitor cocktail (if used subsequently for caspase glo 8 assay) or with 5x Roche protease inhibitor cocktail (if used for immunoblotting). The cells were lysed by mechanical shearing through a 25G needle for 13–15 plunges followed by incubation on ice for 30 min. The lysate was centrifuged at 2000xg for 5 min to remove debris and then incubated with 30 μl of GFP-Trap magnetic agarose beads (Chromotek gtma-20) for 4 hr at 4°C. The beads were then washed with 750 μl of lysis buffer for 10 min at 4°C for three rounds.
For Western blots, samples were eluted by adding 35 μl of non-reducing SDS gel loading buffer (50 mM Tris-HCl (pH 6.8), 2% SDS, 0.1% bromophenol blue, 10% glycerol) and incubated for 10 min at 70°C. The beads were then magnetically removed from the eluted sample before adding DTT to a final concentration of 25 mM. The entire sample was loaded onto the gel and immunoblotted for DR5, caspase 8, and GFP, in that order.

[2] = system: caspase 8 in HCT116 GFP-Trap immunoprecipitates; test: Caspase 8 activity (caspase glo 8) of GFP immunoprecipitates (beads)
Protocol: as §1, §2
For measuring caspase activity, a fifth of the beads was resuspended in 40 μl of 30 mM HEPES pH 7.2, 150 mM NaCl, 1% Triton X-100. 10 μl of the resuspended mixture was incubated with 10 ul of the caspase glo 8 luminogenic substrate (Promega #PRG8200) for 45 min at RT before measuring luminescence.

[3] = system: caspase 8 in HCT116 lysates; test: Caspase 8 activity (caspase glo 8) of cell lysates / IP inputs; settings: for average fold change rel to empty: mean of 4 dilutions
Protocol: Cells harvested from a 6-well plate were resuspended in 100 μl of lysis buffer (30 mM HEPES pH 7.2, 150 mM NaCl, 1% Triton X-100) and lysed via needle shearing (25G, 10 passes) followed by a 30 min incubation on ice. Supernatant was collected after centrifuging at 1000xg for 5 min. For the caspase activity assay, 10 μl of supernatant diluted with lysis buffer (1:25, 1:50, 1:100 to stay within linear range of luminescence measurements) was incubated with 10 μl of the luminogenic caspase glo 8 substrate (Promega #PRG8200) in a 384-white walled plate (Corning 3574) for 45 min at RT before measuring luminescence on a Spectramax-M5 plate reader.

[4] = system: caspase 8 in HCT116 fractions; test: Caspase 8 activity of subcellular (iodixanol gradient) fractions; settings: cells expressing MPZ-GFP; first and second ERGIC-associated fractions
Protocol: This subcellular fractionation protocol was adapted from [Xu et al. (2015)].
Cells transfected with MPZ-GFP were harvested from a 15 cm dish as described in the Size Exclusion Chromatography section above. The cell pellet was resuspended in 400 μl of homogenization buffer (10 mM triethanolamine-acetic acid, pH 7.4, 0.25 M sucrose, 1 mM sodium EDTA, protease inhibitor cocktail (Roche)) and lysed via mechanical shearing through a 25-gauge needle on a 1 ml syringe with 13 passes. (Note on protease inhibitor: 4x protease inhibitor was used to lyse samples used for Western blotting to minimize degradation of proteins, while 1x protease inhibitor was used in sample lysis for caspase glo 8 assay so that excess inhibitor would not interfere with cleavage of luminescent substrate.) Homogenized sample was then centrifuged at 2000xg for 15 min at 4°C to remove unlysed cells and the nuclear fraction. […]
Fractions from samples lysed with 4x protease inhibitor were subjected to TCA precipitation to concentrate protein content for immunoblotting. Fractions from samples lysed with 1x protease inhibitor were used for the caspase glo 8 assay (10 μl of each fraction + 10 μl of the caspase glo 8 reagent (Promega #PRG8200) incubated for 45 min at RT prior to measuring luminescence).

B1: pRK CHOP (protein, UniProt P35638 1-169, looked up)
DNA damage-inducible …: MAAESLPFSFGTLSSWELEAWYEDLQEVLSSDENGGTYVSPPGNEEEESKIFTTLDPASLAWLTEEEPEPAEVTSTSQSPHSPDSSQSSLAQEEEEEDQGRTRKRKQSGHSPARAGKQRMKEKEQENERKVAQLAEENERLKQEIERLTREVEATRRALIDRMVNLHQA
modifications: expression plasmid
avg. fold induction, GADD34 ([1]; HCT116, 62 ng): 1.117 | avg. fold induction, GADD34 ([1]; HCT116, 125 ng): 1.442 | avg. fold induction, GADD34 ([1]; HCT116, 250 ng): 1.579 | avg. fold induction, GADD34 ([1]; HCT116, 500 ng): 2.1696

B2: MPZ-GFP: myelin protein zero with a C-terminal monomeric EGFP, expressed from plasmid (protein)
chain: IVVYTDREVHGAVGSRVTLHCSFWSSEWVSDDISFTWRYQPEGGRDAISIFHYAKGQPYIDEVGTFKERIQWVGDPRWKDGSIVIHNLDYSDNGTFTCDVKNPPDIVGKTSQVTLYVFEKVPTRYGVVLGAVIGGVLGVVLLLLLLFYVVRYCWLRRQAALQRRLSAMEKGKLHKPGKDASKRGRQTPVLYAMLDHSRSTKAVSEKKAKGLGESRKDKK
modifications: left off: monomeric EGFP, C-terminal, kept
notes: myelin protein zero with a C-terminal monomeric EGFP, expressed from plasmid
fraction of DR5 IP'ed (DR5; run 2018-02-27): 0.1051 | fraction of DR5 IP'ed (DR5; sheet 2019-12-12, replicate 2): 0.0582 | fraction of DR5 IP'ed (DR5; sheet 2019-12-12, replicate 3): 0.1364 | DR5 complex proteins in GFP immunoprecipitates (DR5; HCT116, 24 hr post-transfection): detected DR5, FADD, and caspase 8 | fraction IP'ed (DR5; Rep 1 (first series)): 0.1051 | fraction IP'ed (DR5; Rep 2 (first series)): 0.0582 | fraction IP'ed (DR5; Rep 3 (first series)): 0.1364 | % IP'ed (DR5; average of all replicates): 9.991% | fraction IP'ed, average (DR5; average of all replicates): 0.09991 | beads (*diluton factor) (DR5; Rep 1 (first series)): 1453332 | beads (*diluton factor) (DR5; Rep 2 (first series)): 11158310 | beads (*diluton factor) (DR5; Rep 3 (first series)): 12501020 | input (*dilution factor) (DR5; Rep 1 (first series)): 13824070 | input (*dilution factor) (DR5; Rep 2 (first series)): 191711370 | input (*dilution factor) (DR5; Rep 3 (first series)): 91647520 | Mean ± SEM (fraction IP'ed) (DR5; unpaired t test sheet, GFP n=5, MPZ n=3, INS n=2, RHO n=2): 0.09991 ± 0.02272, n=3 | 95% confidence interval (difference between means) (DR5; vs. GFP, fraction IP'ed): 0.04255 to 0.1369 | Difference between means (DR5; vs. GFP, fraction IP'ed, ± SEM): 0.0897 ± 0.01927 | average fold change in caspase 8 activity relative to empty ([2]; GFP IP beads, run 2019-02-05): 2.174 fold | average fold change (relative to empty average) ([2]; GFP beads, dilution 0.0666667, average of rep1-rep3): 3.5 | fold change in caspase 8 activity, Mean ± SEM (unpaired t test) ([2]; GFP beads, n=3): 2.621 ± 0.4397, n=3 fold | average fold change in caspase 8 activity relative to empty ([2]; GFP beads, sheet 2018-02-11 (compiled as Rep 2019-02-11)): 3.5 fold | fold change in caspase 8 activity, average of averages ([2]; GFP beads, three runs compiled): 2.621 fold | caspase 8 activity of immunoprecipitates compared to empty beads ([2]; MPZ-GFP immunoprecipitates, 24 hr post-transfection): 2–3 fold | average fold change rel to empty ([3]; 3 hr): 0.9963 fold | average fold change rel to empty ([3]; 7 hr): 0.909 fold | average fold change rel to empty ([3]; 10 hr): 1.233 fold | average fold change rel to empty ([3]; 20 hr): 1.145 fold | average fold change rel to empty ([3]; 24 hr): 2.224 fold | average fold change ([3]; Rep 1, HCT116 lysate, amount not given, normalized RLUs relative to empty (GFP), average over four lysate dilutions): 2.827 fold | fold change relative to empty ([3]; input, dilution 0.01, rep1): 2.2 | fold change relative to empty ([3]; input, dilution 0.01, rep2): 1.925 | fold change relative to empty ([3]; input, dilution 0.01, rep3): 0.9528 | fold change relative to empty ([3]; input, dilution 0.02, rep1): 2.798 | fold change relative to empty ([3]; input, dilution 0.02, rep2): 1.811 | fold change relative to empty ([3]; input, dilution 0.02, rep3): 1.706 | avg fold change ([3]; input, dilution 0.02, second listing, relative to avg. empty, average of rep1-rep3): 1.9619 | fold change relative to empty ([3]; input, dilution 0.02, second listing, rep2): 1.832 | fold change relative to empty ([3]; input, dilution 0.02, second listing, rep3): 1.342 | fold change in caspase 8 activity relative to empty, Mean ± SEM ([3]; inputs of GFP pulldown, n=6): 1.899 ± 0.2476, n=6 fold | caspase 8 activity of ERGIC-associated fractions [4]: harbored the majority of the caspase 8 activity in the cell lysate

From paper PMC7041945, “Misfolded proteins bind and activate death receptor 5 to trigger apoptosis during unresolved endoplasmic reticulum stress” (eLife, 2020)
